These results are taken from patent US20230293673A1 (LA JOLLA INSTITUTE FOR IMMUNOLOGY, published 2023).

This assay has as its target T1, gH ectodomain, FLAG-tagged and lacking its transmembrane anchor (gHecto^F_TBopt) (human cytomegalovirus (HCMV) strain TB40, UniProt P12824 24-709).
T1 sequence: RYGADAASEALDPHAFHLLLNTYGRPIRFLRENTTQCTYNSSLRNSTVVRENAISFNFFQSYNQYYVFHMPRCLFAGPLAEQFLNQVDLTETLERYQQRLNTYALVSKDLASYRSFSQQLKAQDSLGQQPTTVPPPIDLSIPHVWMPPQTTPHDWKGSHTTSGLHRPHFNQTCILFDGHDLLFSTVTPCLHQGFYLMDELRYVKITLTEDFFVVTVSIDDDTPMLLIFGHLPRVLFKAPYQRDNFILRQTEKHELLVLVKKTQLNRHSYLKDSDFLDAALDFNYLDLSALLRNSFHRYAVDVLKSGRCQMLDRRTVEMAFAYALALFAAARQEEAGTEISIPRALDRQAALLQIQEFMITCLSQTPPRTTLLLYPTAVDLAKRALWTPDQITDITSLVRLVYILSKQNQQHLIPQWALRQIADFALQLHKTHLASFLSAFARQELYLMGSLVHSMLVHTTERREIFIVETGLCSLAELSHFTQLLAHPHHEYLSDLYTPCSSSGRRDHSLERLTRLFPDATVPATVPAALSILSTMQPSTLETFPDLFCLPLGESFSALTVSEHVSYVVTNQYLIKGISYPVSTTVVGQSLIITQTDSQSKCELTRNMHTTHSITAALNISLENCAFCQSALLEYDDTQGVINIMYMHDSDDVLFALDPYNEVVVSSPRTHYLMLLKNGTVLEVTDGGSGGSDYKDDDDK
The experiment in a line: His-tag purification from Expi293F supernatant after co-expression, Western blot (FIG. 2B). (Immunoblotting shows a protein as a band on a membrane.)

B1: octahistidine-tagged UL141 ectodomain (UL141ecto_3C His) (other)
chain: DIAEKMWAENYETTSPAPVLVAEGEQVTIPCTVMTHSWPMVSIRARFCRSHDGSDELILDAVKGHRLMNGLQYRLPYATWNFSQLHLGQIFSLTFNVSTDTAGMYECVLRNYSHGLIMQRFVILTQLETLSRPDEPCCTPALGRYSLGDQIWSPTPWRLRNHDCGMYRGFQRNYFYIGRADAEDCWKPACPDEEPDRCWTVIQRYRLPGDCYRSQPHPPKFLPVTPAPPADIDTGMSPWATR
notes: extracellular domain; not shown: C-terminal '3C' site and octahistidine tag
Consider B1, for which the binding result was “binds”.
